The source of these data is paper doi:10.1101/2020.07.23.218024.

Test in all cases: ELISA
One assay has as its target GST-PEX14-NTD (human) (UniProt O75381).
Assay [1] deals with microtubules / purified porcine brain tubulin (porcine).
The target is the same in assay [2]. The source holds these as a separate data set.

Like-named read-outs stand apart in the source and are kept apart here.

Sequence of GST-PEX14-NTD (human) (O75381 1-80): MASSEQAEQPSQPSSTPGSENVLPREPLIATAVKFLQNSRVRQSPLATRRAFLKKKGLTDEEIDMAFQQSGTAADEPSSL

With “full-length His6-TEV-PEX5S (from UniProt P50542-2 1-602) (natural protein)”, the IC50 with GST-PEX14-NTD (human) amounted to 1200 nM.
In assay [1], “monomeric His-tagged Kif5B kinesin motor domain (domain or fragment)” came in with a Kd of 56.6 nM.
On to “GST-PEX14-NTD (from UniProt O75381 1-80) (domain or fragment)”, for which the Kd in assay [2] was 0.7 to 2.3 nM; in assay [1], 2.1 nM.
In assay [1], “His-PEX14-NTD (from UniProt O75381 1-80) (domain or fragment)” yielded a fold weaker affinity than GST-PEX14-NTD/MT greater than 100 fold.
